In general, EC50 refers to the concentration giving half of the maximal effect. Read a high EC50 as a less potent agent.

Results on 18 molecules are retold here after patent US20030224453A1, “Structural models for cytoplasmic domains of transmembrane receptors” (priority 1998, published 2003).

Ends that are not written are not given here.

The target in test [1] is T1, integrin β3 cytoplasmic domain (Homo sapiens, UniProt P05106).
T1 sequence (P05106 742-788 limits assumed): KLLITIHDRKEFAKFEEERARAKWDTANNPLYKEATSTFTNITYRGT
Description: Immunochemical ELISA: αIIb peptides added to fixed saturating β3 peptide, competition for anti-model protein antibody binding to coated αIIbβ3 (EC50 determination). Particulars: for EC50: dose of αIIb peptide resulting in B/B0=0.5 with fixed saturating β3 peptide (20-50 nM). An excerpt: Antibodies raised against a mimic of the present invention were used in an immunochemical assay to identify compounds that bind to the 3 cytoplasmic domain and induce a conformation change. In this assay, the binding of the αIIb and β3 cytoplasmic tails was first analyzed. […] Furthermore, as shown in this Table, point mutations or deletions that disrupted this heptapeptide sequence in the αIIb cytoplasmic domain also disrupted interaction with β3.
αIIbβ3 was purified by gel filtration in accordance with procedures described by Du et al. (Cell 65:409-416 (1991)) with omission of the heparin and Con A affinity chromatography steps. The final product was greater than 95% homogenous as judged by SDS PAGE. In the enzyme-linked immunosorbent assay (ELISA) the αIIbβ3 was used at a concentration of 5 μg/ml in a coating buffer containing 0.1 M NaHCO3 and 0.05% NaN3. Fifty ul/well was used to coat IMMULON II microtiter wells at 4° C. overnight. After removal of the coating solution, 150 Al blocking buffer (coating buffer containing 5% bovine serum albumin) was added. After an additional one hour incubation at 4° C., the blocking buffer was removed and the plates were washed three times with wash buffer (0.01 M Tris, 0.15 M NaCl, 0.01% thimerisol, 0.05% Tween 20, pH 8.0). Twenty-five microliters of the competitor was added to each well followed by 25 μl of a dilution of the anti-model protein antibody. Following mixing, the plate was covered for one hour at 37° C. and washed four times with wash buffer. To quantify bound antibody, 50 μl of horseradish peroxidase-conjugated goat anti-rabbit IgG (Biorad) was diluted to a concentration of 1/1000 in wash buffer containing 1 mg/ml bovine serum albumin. These plates were then incubated at 37° C. for 1.5 hours. After four washes, bound antibody was assayed by measuring peroxidase activity with O-phenylenediamine as a substrate and quantifying reaction product by its optical density at 490 nm. Data were expressed as B/B0 where B=A490 in the presence of competitor and B0=A490 in its absence. In some experiments, varying concentrations of αIIb peptides were added to a fixed, saturating, quantity of β3 peptide (20-50 nM). Competition was again expressed as B/BO, however, B0 was the A490 in the presence of the β3 peptide and no added αIIb peptide. EC50 was defined as the dose of αIIb resulting in B/B0=0.5.
In general terms: In an ELISA, binding on a coated surface is turned into a signal by an enzyme label.

The next test relates to platelet αIIbβ3. Description: ELISA: inhibition by competitor of anti-mimic antibody reactivity with native platelet αIIbβ3. Format: binding, human. The following applies: antibody raised against FIG. 2 heterodimeric mimic; result in words. As for the experimental part:
Antibodies against these heteromeric complexes of the present invention that recognize combinatorial epitopes of the cytoplasmic domains of the complex can be produced in accordance with well known techniques. For example, antibodies were prepared against the heterodimeric complex of FIG. 2. […] Thus, this antibody recognized combinatorial epitopes in the cytoplasmic domain of the native receptor that were mimicked in the model protein.
Antibodies to the model protein depicted in FIG. 2 were raised in 2.5 kg New Zealand white rabbits. One hundred microliters of a water solution containing 1 mg/ml of the model protein was emulsified in 1 ml incomplete Freund's adjuvant and administered subcutaneously to each New Zealand white rabbit. Two additional injections at 2-week intervals were followed by bleeding (approximately 50 mls) at monthly intervals until the rabbits were sacrificed. Blood was permitted to clot at room temperature, and the serum was recovered by centrifugation. Serum was heat inactivated at 56° C. for 30 minutes and stored at −20° C. A pre-immune serum, obtained prior to immunization, was used as a control.
αIIbβ3 was purified by gel filtration in accordance with procedures described by Du et al. (Cell 65:409-416 (1991)) with omission of the heparin and Con A affinity chromatography steps. […] To quantify bound antibody, 50 μl of horseradish peroxidase-conjugated goat anti-rabbit IgG (Biorad) was diluted to a concentration of 1/1000 in wash buffer containing 1 mg/ml bovine serum albumin. […] After four washes, bound antibody was assayed by measuring peroxidase activity with O-phenylenediamine as a substrate and quantifying reaction product by its optical density at 490 nm. Data were expressed as B/B0 where B=A490 in the presence of competitor and B0=A490 in its absence. In some experiments, varying concentrations of αIIb peptides were added to a fixed, saturating, quantity of β3 peptide (20-50 nM). Competition was again expressed as B/BO, however, B0 was the A490 in the presence of the β3 peptide and no added αIIb peptide. […]

Test [2] concerns the target T2, Full-length β3 peptide (β3 cytoplasmic tail) (UniProt P05106 742-788, limits assumed).
T2 construct: domain: cytoplasmic domain; also called wild-type β3
T2 peptide (looked up): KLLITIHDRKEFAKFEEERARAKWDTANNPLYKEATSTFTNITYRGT
Description: competitive ELISA with β3 peptide and anti-model protein antibody on coated αIIbβ3.

A further test has as its target talin (Homo sapiens, UniProt Q9Y490). Description: Affinity chromatography of cell lysates on cytoplasmic domain mimics, talin detected. Format: binding. Details: endogenous in cells; host or cells: human platelets (also Jurkat, HT1080, mouse C2C12 myotubes). The following applies: NHS-biotin-labeled human platelet lysates; result in words. From the text:
To study possible influences of the structural changes induced by the Gly insertions, protein models were produced having the β1A cytoplasmic domain with one, two and three additional Gly residues inserted after the heptad-repeat motif (G2-, G3-, G4-β1A) and compared with the G1-β1A construct. As an additional control, a variant of the G4-β1A peptide was produced with a Tyr to Ala substitution in the membrane-proximal NPXY-motif (G4-β1A-Y788A) (FIG. 1). This mutation interferes with focal adhesion targeting and activation of integrins. The purified proteins were bound via their N=terminal His-Tag to a Ni^2+−resin and used in affinity chromatography experiments with lysates of NHS-biotin-labeled human platelets. Marked changes in the pattern of protein binding were observed as a consequence of the Gly insertions. Polypeptides migrating at 45, 56, 58, 140 and 240 kDa bound only to the mimics with Gly insertions. […] Using monoclonal antibodies, the 240 kDa and 45 kDa proteins were identified as filamin and actin, respectively. […] Talin bound to the G1- and G4-β1A construct but not to the Y788A-G4β1A construct. Thus, the structural changes in the model induced by the insertion of glycines into the coiled-coil motif and the integrin cytoplasmic domain sequence alter interactions of these proteins with cellular components. Alterations of the β1A tail that block cytoskeletal interactions, such as the Y788 mutation and β1B- and β1C-splice variants also abrogate binding to talin and filamin. Consequently, the observed in vitro interactions are likely to be biologically relevant.
Human platelets were obtained by centrifugation of freshly drawn blood samples at 1000 rpm for 20 minutes and sedimentation of the resulting platelet-rich plasma at 2600 rpm for 15 minutes. They were washed twice with 0.12 M NaCl, 0.0129 M trisodium citrate, 0.03 M glucose, pH 6.5, and once in Hepes-Saline (3.8 mM Hepes, 137 mM NaCl, 2.7 mM KCl, 5.6 mM D-Glucose, 3.3 mM Na2HPO4, pH 7.3-7.4). […]

Test [3] addresses T2, Full-length β3 peptide (β3 cytoplasmic …). Description: αIIb peptide titrated with fixed saturating β3 peptide; inhibition of antibody binding to coated αIIbβ3 (ELISA), EC50 at B/B0=0.5.

Chain of talin (Q9Y490 whole entry, the tested form may be a part): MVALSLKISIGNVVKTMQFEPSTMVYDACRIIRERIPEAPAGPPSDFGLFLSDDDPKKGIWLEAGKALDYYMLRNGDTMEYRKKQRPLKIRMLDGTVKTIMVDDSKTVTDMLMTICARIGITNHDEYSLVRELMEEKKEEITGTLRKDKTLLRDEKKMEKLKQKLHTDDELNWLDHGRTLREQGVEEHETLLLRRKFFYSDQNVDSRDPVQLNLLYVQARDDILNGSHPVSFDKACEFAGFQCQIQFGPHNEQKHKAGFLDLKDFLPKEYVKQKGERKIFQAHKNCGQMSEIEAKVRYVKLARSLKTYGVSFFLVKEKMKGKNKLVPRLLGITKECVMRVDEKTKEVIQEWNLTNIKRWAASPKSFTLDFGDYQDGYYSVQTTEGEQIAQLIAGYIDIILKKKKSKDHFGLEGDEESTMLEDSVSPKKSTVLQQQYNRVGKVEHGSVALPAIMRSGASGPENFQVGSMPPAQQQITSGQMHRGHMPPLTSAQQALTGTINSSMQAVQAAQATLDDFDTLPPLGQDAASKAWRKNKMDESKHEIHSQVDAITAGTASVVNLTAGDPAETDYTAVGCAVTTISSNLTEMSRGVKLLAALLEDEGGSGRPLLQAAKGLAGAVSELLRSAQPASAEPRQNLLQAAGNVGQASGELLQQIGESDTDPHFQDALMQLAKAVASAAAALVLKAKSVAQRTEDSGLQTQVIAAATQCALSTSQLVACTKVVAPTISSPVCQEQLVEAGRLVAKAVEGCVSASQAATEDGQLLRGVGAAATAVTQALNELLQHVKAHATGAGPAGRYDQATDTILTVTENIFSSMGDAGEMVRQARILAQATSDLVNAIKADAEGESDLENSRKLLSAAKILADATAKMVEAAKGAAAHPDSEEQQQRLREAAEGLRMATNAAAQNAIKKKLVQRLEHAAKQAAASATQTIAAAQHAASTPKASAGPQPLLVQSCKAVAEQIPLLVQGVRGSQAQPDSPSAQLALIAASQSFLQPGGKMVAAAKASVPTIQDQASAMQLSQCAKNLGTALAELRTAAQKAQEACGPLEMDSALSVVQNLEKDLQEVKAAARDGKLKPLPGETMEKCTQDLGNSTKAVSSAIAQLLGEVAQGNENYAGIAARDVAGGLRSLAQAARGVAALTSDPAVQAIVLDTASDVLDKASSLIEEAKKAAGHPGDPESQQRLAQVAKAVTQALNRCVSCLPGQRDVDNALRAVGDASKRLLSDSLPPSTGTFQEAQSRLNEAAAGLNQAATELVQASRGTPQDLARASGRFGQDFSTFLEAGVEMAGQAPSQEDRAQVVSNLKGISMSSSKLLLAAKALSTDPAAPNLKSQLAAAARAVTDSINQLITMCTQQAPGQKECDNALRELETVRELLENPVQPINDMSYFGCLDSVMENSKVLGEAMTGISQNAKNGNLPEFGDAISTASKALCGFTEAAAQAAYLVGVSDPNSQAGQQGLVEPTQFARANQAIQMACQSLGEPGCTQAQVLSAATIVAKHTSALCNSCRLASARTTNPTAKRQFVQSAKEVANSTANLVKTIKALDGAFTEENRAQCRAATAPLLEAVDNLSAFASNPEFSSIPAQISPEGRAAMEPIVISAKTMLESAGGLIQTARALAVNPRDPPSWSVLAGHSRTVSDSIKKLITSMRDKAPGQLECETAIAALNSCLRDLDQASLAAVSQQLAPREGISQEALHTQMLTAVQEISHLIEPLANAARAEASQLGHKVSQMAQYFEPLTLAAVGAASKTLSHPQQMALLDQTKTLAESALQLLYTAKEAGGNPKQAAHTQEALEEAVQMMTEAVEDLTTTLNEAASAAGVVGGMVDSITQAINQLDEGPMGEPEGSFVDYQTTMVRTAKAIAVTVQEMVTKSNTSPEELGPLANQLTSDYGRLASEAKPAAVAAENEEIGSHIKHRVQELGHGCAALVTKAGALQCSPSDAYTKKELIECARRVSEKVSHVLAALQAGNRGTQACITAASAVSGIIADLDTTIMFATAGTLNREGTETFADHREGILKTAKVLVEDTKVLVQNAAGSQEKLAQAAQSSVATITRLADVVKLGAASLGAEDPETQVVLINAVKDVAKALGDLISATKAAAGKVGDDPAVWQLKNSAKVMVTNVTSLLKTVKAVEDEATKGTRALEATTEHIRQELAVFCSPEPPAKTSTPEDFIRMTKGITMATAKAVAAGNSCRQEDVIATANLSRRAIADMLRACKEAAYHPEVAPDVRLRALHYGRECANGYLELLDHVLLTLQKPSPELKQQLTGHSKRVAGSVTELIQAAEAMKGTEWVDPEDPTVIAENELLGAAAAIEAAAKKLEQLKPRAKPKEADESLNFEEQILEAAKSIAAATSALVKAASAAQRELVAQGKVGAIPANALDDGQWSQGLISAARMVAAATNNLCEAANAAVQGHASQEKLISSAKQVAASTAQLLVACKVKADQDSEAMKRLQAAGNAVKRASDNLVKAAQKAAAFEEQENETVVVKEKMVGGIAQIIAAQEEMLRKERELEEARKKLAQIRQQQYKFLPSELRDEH

On to “full-length αIIb peptide: full-length linear peptide of the αIIb cytoplasmic domain (KVGFFKRNRPPLEEDDEEGE)”, for which the “interaction with β3 cytoplasmic tail (induces conformation change seen by antibody)” value in test [1] (result in words) is recorded as “apparent affinity of the interaction was high”. In addition, the “inhibition of antibody reactivity with platelet αIIbβ3” value (from here on “inhibition of antibody reactivity”) with platelet αIIbβ3 is reported as “not inhibited”. Molecule PLEEDDEEGQ showed an EC50 in test [1] of over 1 µM. On the same count and under the same terms, the figure for KVGFFKRNRPPLEE is over 1 µM; for KVGFFKRNRPPLEEAAEEGQ it is over 1 µM. For “full-length β3 peptide: full-length linear peptide of the β3 cytoplasmic domain (KLLITIHDRKEFAKFEEERARAKWDTANNPLYKEATSTFTNITYRGT)”, the “inhibition of antibody reactivity” value in the test with platelet αIIbβ3 is listed as “only partially inhibited”. Take “β3 (Y747A) mutant: mutant of the β3 cytoplasmic domain, Y747A (KLLITIHDRKEFAKFEEERARAKWDTANNPLAKEATSTFTNITYRGT)”: the “inhibition of antibody reactivity” value in the test with platelet αIIbβ3 is “completely inhibited”. In test [1], PPLEED [PPLEED] returned a half-maximal effective concentration (EC50) of over 1 µM. Still for that read-out and setting: the value for KVGFFPLEEAAEEGQ was over 1 µM. Turning to KAGFFKRQYKSILQEENRRDSWSYINSKSNDD (peptide, UniProt P13612 1001-1032, looked up, domain: cytoplasmic domain) [Cytoplasmic domain of integrin α4], the binding result in test [2] is on record as “no binding”.

Consider KLGFFKRSLPYGTAMEKAQLKPPATSDA (peptide, UniProt P08648 1022-1049, looked up, domain: cytoplasmic domain) [Cytoplasmic domain of integrin α5], for which the binding result in test [2] is on record as “no binding”.

B1: G4-β1A: β1A construct with three additional glycines between heptad repeats and cytoplasmic domain (protein)
chain: GSSHHHHHHSSGLVPRGSHMKLEALEGRLDALEGKLEALEGKLDALEGGGGKLLMIIHDRREFAKFEKEKMNAKWDTGENPIYKSAVTTVVNPKYEGK
On to B1, for which, in the test with talin, the “talin binding from cell lysates” value is listed as “bound”.

B2: G1-β1A: His-tag, four heptad repeats, one glycine, β1A integrin cytoplasmic domain (protein)
chain: GSSHHHHHHSSGLVPRGSHMCGKLEALEGRLDALEGKLEALEGKLDALEGKLLMIIHDRREFAKFEKEKMNAKWDTGENPIYKSAVTTVVNPKYEGK
Consider B2, for which the “talin binding from cell lysates” value with talin was “bound”. In the case of KRNRPPLEEDDEEGQ [αIIb peptide KRNRPPLEEDDEEGQ], the half-maximal effective concentration (EC50) in test [3] is 0.006 µM. Still for that read-out and setting: the figure for KVGFFKRNRPPLEEDDEEGQ [αIIb peptide KVGFFKRNRPPLEEDDEEGQ] is 0.003 µM; for RPPLEED [αIIb heptapeptide RPPLEED] it is 0.03 µM. For KVGFFKRNRPPLEEDD [αIIb peptide KVGFFKRNRPPLEEDD], in test [3], the response was half-maximal at 0.005 µM (EC50). On the same count and under the same terms, the figure for NRPPLEEDDEEGQ [αIIb peptide NRPPLEEDDEEGQ] is 0.008 µM. Same read-out and setting: the value for NRPPLEEDD [αIIb peptide NRPPLEEDD] was 0.02 µM.
